Numbering of substitutions follows the chain as printed.
Columns and labels:
[1] = target: T1, bovine LPL (bovine, UniProt P11151 29-478); experiment: cell-based or functional assay
T1 sequence (looked up): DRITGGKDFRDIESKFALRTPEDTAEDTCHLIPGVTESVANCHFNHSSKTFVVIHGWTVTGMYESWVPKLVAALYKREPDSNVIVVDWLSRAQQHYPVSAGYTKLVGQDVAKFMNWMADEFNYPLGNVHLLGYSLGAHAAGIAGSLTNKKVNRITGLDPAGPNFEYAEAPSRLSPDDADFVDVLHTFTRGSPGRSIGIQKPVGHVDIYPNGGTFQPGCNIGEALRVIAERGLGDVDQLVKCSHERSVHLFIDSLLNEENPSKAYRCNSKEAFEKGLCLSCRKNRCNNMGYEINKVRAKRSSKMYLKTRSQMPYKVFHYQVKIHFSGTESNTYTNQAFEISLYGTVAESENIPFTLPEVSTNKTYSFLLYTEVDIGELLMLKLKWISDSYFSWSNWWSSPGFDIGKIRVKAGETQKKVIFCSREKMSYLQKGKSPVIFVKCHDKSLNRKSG

[2] = target: T2, N-mANGPTL4 (mouse); experiment: ELISA, coated antigen 0.25 ug/ml, antibody 0 to 10 ug/ml
T2 construct: E. coli construct; also called portion of the amino terminal domain of mouse ANGPTL4
T2 chain: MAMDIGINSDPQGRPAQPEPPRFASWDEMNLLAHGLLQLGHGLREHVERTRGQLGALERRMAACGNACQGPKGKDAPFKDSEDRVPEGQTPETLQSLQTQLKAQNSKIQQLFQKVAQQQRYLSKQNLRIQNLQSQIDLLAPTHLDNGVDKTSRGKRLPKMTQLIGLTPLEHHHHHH
Procedure: (§1) Antibodies were screened for binding to mouse ANGPTL4 using ELISA. Ninety-six well Nunc Maxi-Sorp ImmunoPlates™ (Nunc #446612, Roskilde, Denmark) were coated by adding 50 μl per well of a 2.5 μg/ml solution of ANGPTL4 in coating buffer (BupH™ Carbonate-Bicarbonate Buffer, Pierce #28382, Rockford, Ill.) overnight at 4° C. Coating buffer was removed and the plate was blocked by adding 250 μl per well of blocking buffer (1% Blocker™ BSA, Pierce #37525, in PBS) for two hours at room temperature. 50 μl of hybridoma supernatant (undiluted or diluted in blocking buffer) or isolated anti-ANGPTL4 antibody (undiluted or diluted in blocking buffer) were added to the wells and incubated for at least one hour at room temperature. Wells were washed four times with PBS/Tween 20. 100 μl of diluted (1:5,000 to 1:10,000) HRP-conjugated goat anti-mouse IgG (Pierce #31446) were added to the wells and incubated for one hour at 37° C. Wells were washed six times with PBS/Tween 20. Anti-ANGPTL4 antibody was detected by adding 50 μl of TMB (tetramethyl benzidine) solution (ImmunoPure® TMB Substrate Kit, Pierce #34021) to the wells for 5 to 10 minutes. Plates were read spectrophotometrically at 450 nm using a microplate reader (Molecular Devices, Sunnyvale, Calif.).
(§2) The binding affinity of antibodies 90B4, 15F2, and 14D12 were determined for each of N-mANGPTL4 and N-hANGPTL4 by ELISA. N-hANGPTL4 was expressed and purified from bacteria as described above for N-mANGPTL4 in Example Q. A polynucleotide sequence encoding amino acids 24 to 175 of human ANGPTL4 was cloned into expression vector pET22b(+), which encodes an N-terminal pelB leader sequence and a C-terminal His tag. Following translation of the protein and removal of all but 11 amino acids of the pelB sequence, N-hANGPTL4 has the sequence shown in SEQ ID NO: 11. That sequence contains 11 amino acids from the pelB sequence, followed by amino acids 24 to 175 of human ANGPTL4 (underlined in Table 6), followed by a 2 amino acid linker and the His tag. ELISAs were performed as discussed above in Example K, except the plates were coated with 50 μl of 0.25 μg/ml of protein (N-mANGPTL4 or N-hANGPTL4) per well. Binding was measured at 0 μg/ml, 0.08 μg/ml, 0.4 μg/ml, 2 μg/ml, and 10 μg/ml antibody.

[3] = target: T3, N-hANGPTL4 (human); experiment: as above
T3 construct: E. coli construct
T3 chain: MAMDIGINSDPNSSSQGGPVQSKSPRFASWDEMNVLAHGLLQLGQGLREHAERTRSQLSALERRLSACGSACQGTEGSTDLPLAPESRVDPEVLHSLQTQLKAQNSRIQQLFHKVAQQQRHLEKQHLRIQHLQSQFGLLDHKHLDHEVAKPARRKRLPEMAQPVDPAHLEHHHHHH
Procedure: as §1, §2

[4] = target: T4, full-length human ANGPTL4 (human, UniProt Q9BY76 26-406); experiment: hybridoma screening ELISA, coated antigen 0.25 ug/ml
T4 construct: also called hANGPTL4
T4 sequence: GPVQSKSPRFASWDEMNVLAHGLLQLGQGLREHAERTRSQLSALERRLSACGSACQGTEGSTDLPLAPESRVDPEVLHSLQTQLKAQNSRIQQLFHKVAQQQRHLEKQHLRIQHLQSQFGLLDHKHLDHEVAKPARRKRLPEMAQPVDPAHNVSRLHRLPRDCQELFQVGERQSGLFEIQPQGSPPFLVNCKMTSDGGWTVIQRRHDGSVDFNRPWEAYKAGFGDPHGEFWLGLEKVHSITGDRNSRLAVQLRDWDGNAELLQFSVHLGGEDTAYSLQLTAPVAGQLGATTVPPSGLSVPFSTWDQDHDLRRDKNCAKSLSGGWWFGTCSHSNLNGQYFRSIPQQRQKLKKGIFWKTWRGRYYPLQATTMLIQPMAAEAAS

[5] = target: T5, His-SUMO-gs4 (mouse, UniProt Q9Z1P8 99-151); experiment: Western blot of in vitro translated fragments
T5 construct: Translated in vitro (RTS E. coli); also called gs4 fragment of mANGPTL4
T5 sequence: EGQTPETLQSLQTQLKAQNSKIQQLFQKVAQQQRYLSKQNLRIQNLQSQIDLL
Procedure: (§3) The in vitro translated protein fragments were separated on four SDS-PAGE gels, along with N-mANGPTL4, and transferred to four nitrocellulose blots. The blots were then blocked for 1 to 2 hours with TBS containing 5% nonfat dried milk (TBS-NFDM). After blocking, the blots were rinsed with TBS containing 0.5% Tween-20 (TBS-Tween) four times for five minutes each rinse. The blots were then incubated in TBS-NFDM containing tester antibody (14D12, 15F2, 90B4, or anti-His) overnight at 4° C. The blots were rinsed with TBS-Tween four times for five minutes each rinse and then incubated in TBS-NFDM containing a 1:6000 dilution of HRP-coupled goat anti-mouse antibody (Southern Biotechnology Associates) for 1 hour. The blots were rinsed with TBS-Tween four times for five minutes each rinse and then developed using SuperSignal West Pico Chemiluminescent Substrate (Pierce Biotechnology) as directed by the manufacturer. Alternatively, blots can be developed using the Western Breeze™ Immunodetection Kit (Invitrogen).
(§4) Antibody 14D12 bound only to N-mANGPTL4 in that experiment. […] That result may be due to the fact that 14D12 is a weaker binder than 15F2 and 90B4. See, e.g., Example S and FIG. 33. Antibody 15F2 bound His-SUMO-gs1. […] Antibody 90B4 bound to His-SUMO-gs2 and His-SUMO-gs4.

[6] = target: T6, His-SUMO-gs2 (mouse, UniProt Q9Z1P8 49-98); experiment: Western blot of in vitro translated fragments
T6 construct: Translated in vitro (RTS E. coli); also called gs-2 fragment of mANGPTL4
T6 chain: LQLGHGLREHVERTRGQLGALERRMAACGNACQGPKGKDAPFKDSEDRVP
Procedure: as §3, §4

[7] = target: T7, His-SUMO-gs1 (mouse, UniProt Q6TMA8 24-73 (rat entry)); experiment: Western blot of in vitro translated fragments
T7 construct: Translated in vitro (RTS E. coli); also called gs-1 fragment of mANGPTL4
T7 chain: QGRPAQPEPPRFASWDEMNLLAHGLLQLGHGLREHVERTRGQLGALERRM
Procedure: as §3, §4

[8] = target: T8, His-SUMO-gs5 (mouse, UniProt Q9Z1P8 124-180); experiment: Western blot of in vitro translated fragments
T8 construct: Translated in vitro (RTS E. coli); also called gs5 fragment of mANGPTL4
T8 sequence: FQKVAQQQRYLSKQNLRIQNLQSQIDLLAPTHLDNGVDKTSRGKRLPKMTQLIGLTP
Procedure: as §3, §4

[9] = target: T9, His-SUMO-gs3 (mouse, UniProt Q9Z1P8 74-123); experiment: Western blot of in vitro translated fragments
T9 construct: Translated in vitro (RTS E. coli); also called gs-3 fragment of mANGPTL4
T9 chain: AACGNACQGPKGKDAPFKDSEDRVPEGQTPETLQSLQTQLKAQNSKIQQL
Procedure: as §3, §4

B1: full-length mouse ANGPTL4 (ligand)
chain: QGRPAQPEPPRFASWDEMNLLAHGLLQLGHGLREHVERTRGQLGALERRMAACGNACQGPKGKDAPFKDSEDRVPEGQTPETLQSLQTQLKAQNSKIQQLFQKVAQQQRYLSKQNLRIQNLQSQIDLLAPTHLDNGVDKTSRGKKLSKMTQLIGLTSNATHLHRPARDCQELFQEGERHSGLFQIQPLGSPPFLVNCEMTSDGGWTVIQRRLNGSVDFNQSWEAYKDGFGDPQGEFWLGLEKMHSITGDRGSQLAVQLQDWDGNAKLLQFPIHLGGEDTAYSLQLTEPTANELGATNVSPNGLSLPFSTWDQDHDLRGDLNCAKSLSGGWWFGTCSHSNLNGQYFHSIPRQRQERKKGIFWKTWKGRYYPLQATTLLIQPMEATAAS
B1 was tested, and the “IC50 (concentration required for 50% inhibition) of LPL activity, release of 3H-oleic acid” value [1] was roughly 25 nM.

B2: monoclonal antibody 90B4 (antibody, V domains shown)
VH: EVQLQQSGPELMKPGASVKMSCRTSGYTFTDYSIHWVKQSHGKRLEWIGYINPYNGDTYCDQNFKGKATLTFNKASSTAYMEIPRLTSDDSAVYYCTRWKTIQAPFAYWGQGTLVTVSA
VL: EIQMTQSPSSMSASLGDRITITCQATQDIVKNLNWYQQKPGKPPSFLIHYATELAEGVPSRFSGSGSGSDYSLTISNLESEDFADYYCLQSYDFPYTFGGGTKLEIN
B2: binds [2]; binds [3]; binds [4]. B2: binds [5]; binds [6].

B3: monoclonal antibody 15F2 (antibody, V domains shown)
VH: EVKLVESGGGLVKPGGSLKLSCAASGFAFSRYDMSWVRQTPEKRLEWVATISTDGSYTYYPDSVKGRFTISRDNARNTLYLQMGSLRSEDTALYFCVRHEQSTIVPHYPLDYWGQGTSVTVSS
VL: EIQMTQSPSSMSASLGDRITITCQATQDIVKNLNWYQQKPGKPPSFLIHYATELAEGVPSRFSGSGSGSDYSLTISNLESEDFADYYCLQSYDFPYTFGGGTKLEINR
B3: binds [2]; binds [3]; binds [7].

B4: monoclonal antibody 14D12 (antibody, V domains shown)
VH: B3 VH with D54G, I104V
VL: DIVMTQSPATLSVTPGDRVSLSCRASQSIGDYLHWYQQKSHESPRLLIKYASQSISGIPSRFSGSGSGSDFTLSIDSVEPEDVGVYYCQNGHSFPFTFGSGTKLEIKR
B4: binds [2]; binds [3]; no binding [8]. B4: no binding [5]; no binding [7]; no binding [6]. B4: no binding [9].
